Assay results: patent publication US20040071656A1, “Modulation of heat-shock-protein-based immunotherapies” (priority 2001, published 2004)

Assays:
[1] = molecular target: T1, human CD40 (Homo sapiens, UniProt P25942); assay: P38 kinase assay in HEK293T-CD40 cells; format: cell-based; conditions: for phosphorylated p38 in HEK293T-CD40 cells: 100 nM, 20 min at 37° C., ADP and peptide C
T1 construct: CD40 full-length cDNA was cloned by PCR; expressed in transfected cells
Description: P38 Kinase Assay. Twenty-four h prior to P38 kinase assays HEK293T-CD40 and HEK293T-MCAT cells were seeded into a 24-well plate coated with collagen and incubated with 100 nM CD40L (Alexis), HSP70, N70-domain, C70-domain, or DnaK for 20 min at 37° C. DnaK, Hsp70, N70 and C70 were preincubated with either 2 mM ADP and 30 μM peptide C or 40 μM AMPPNP (Sigma). Upon stimulation cells were washed twice with ice-cold PBS, and lysed in SDS-sample buffer. Equal amounts of protein were analyzed by immunoblotting with antibodies directed against phosphorylated P38 (Promega), and with a monoclonal anti-tubulin antibody (J. Wehland, Braunschweig, Germany).
Binding of Hsp70-peptide complex to CD40 results in intracellular signaling and peptide uptake. Binding of CD40 ligand to CD40 induces signal transduction via phosphorylation of p38, a component of the signal cascade between activated CD40 and NF-kappaB, which eventually results in the release of TNF-alpha and subsequent secretion of interferon-gamma (Pullen et al., 1999). Binding of the C-terminal domain of DnaK to CD40 was reported to have a similar effect (Wang et al., 2001, idem). We therefore investigated whether binding of human Hsp70-peptide complex to CD40 also stimulates this signaling pathway. These experiments were carried out in HEK293T cells stably transfected with human CD40 cDNA. After incubation with either Hsp70-peptide complex, recombinant Hsp70 domains, or DnaK, in the presence of ADP or the non-hydrolysable ATP analogue AMPPNP, cells were lysed, and lysates analyzed by immunoblotting with an antibody directed against active (i.e., phosphorylated) p38.
Details for FIG. 6. Binding of Hsp70 complex to CD40-expressing HEK293T cells induces signaling via p38 and causes peptide uptake. […] Thereafter cells were washed, solubilized in SDS-sample buffer, and analyzed by immunoblotting with antibodies directed against phosphorylated (active) p38. […] Thereafter cells were washed, incubated for 15 min at 37° C., and processed for fluorescence microscopy. […]

[2] = molecular target: T1, human CD40; assay: Uptake of peptide C-FITC in HEK293T-CD40 cells, confocal microscopy; format: cell-based; conditions: 0.5 μM protein, 5 μM peptide C-FITC, ADP, 30 min 0° C. then 15 min 37° C.
Description: For experiments to study uptake of Hsp70/peptide C-FITC complex, HEK293T-CD40 and HEK293T-MCAT cells were seeded on collagen-coated cover slips 24 h prior to the experiment. For complex formation Hsp70, its N-terminal domain (N70) or its C-terminal domain (C70) were preincubated with a 10-fold molar excess of peptide C-FITC for 30 min at 37° C., as described above for the biotinylated proteins. HEK293T-CD40 and HEK293T-MCAT were incubated with 0.5 μM of Hsp70, N70 or C70, preincubated with 2 mM ADP and 5 μM peptide C-FITC, or 5 μM peptide C-FITC alone for 30 min on ice. Thereafter the cells were washed three times with medium, incubated for 15 min at 37° C., and fixed, embedded in Fluoromount-G and analyzed by confocal microscopy (LSM 510, Zeiss).
Next, the binding of Hsp70-peptide complex to CD40 was studied, which results in the uptake of peptide. To this end, HEK293T-CD40 cells and HE293T-MCAT cells (not expressing CD40) were incubated with a fluorescent (FITC) derivative of peptide C for 30 min at 0° C. in the presence of ADP, with or without Hsp70 or its two domains. After removal of excess material, the cells were incubated at 37° C. for 15 min, fixed and then analyzed by fluorescence microscopy. […] (FIG. 6B, panel 1). […] Neither did HEK293T-MCAT control cells give rise to a signal under any of the conditions tested (not shown). We conclude that the specific interaction of CD40 with Hsp70-peptide complex mediates the uptake of peptide.
Details for FIG. 6. Binding of Hsp70 complex to CD40-expressing HEK293T cells induces signaling via p38 and causes peptide uptake. A. HEK293T-cells, stably transfected with cDNA encoding human CD40 or the unrelated membrane protein murine cationic amino acid transporter (MCAT) were incubated for 20 min at 37° C. with CD40L or with Hsp70, C70, N70, bacterial DnaK either in the presence of ADP or AMPPNP, or buffer alone. Thereafter cells were washed, solubilized in SDS-sample buffer, and analyzed by immunoblotting with antibodies directed against phosphorylated (active) p38. Blots were also developed with an antibody against tubulin in order to control for equal loading. B. Cells were incubated at 0° C. for 30 min with recombinant human Hsp70, N70, or C70, all in the presence FITC-labeled peptide, or with the FITC-labeled peptide alone. Thereafter cells were washed, incubated for 15 min at 37° C., and processed for fluorescence microscopy. Upper left panel: Hsp70, upper right panel: FITC-labeled peptide alone, lower left panel: C70, lower right panel: N70. Only cells stably transfected with CD40 are shown. Cell boundaries are emphasized with broken lines.

T1 sequence (P25942 21-277): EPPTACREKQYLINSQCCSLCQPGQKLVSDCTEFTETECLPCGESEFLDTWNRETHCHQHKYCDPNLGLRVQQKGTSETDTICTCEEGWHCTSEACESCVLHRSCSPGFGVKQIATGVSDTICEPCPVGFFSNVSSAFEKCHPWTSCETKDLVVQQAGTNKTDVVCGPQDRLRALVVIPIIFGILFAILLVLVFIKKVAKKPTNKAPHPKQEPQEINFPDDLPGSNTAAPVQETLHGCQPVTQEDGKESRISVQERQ

Substance | phosphorylated p38 in HEK293T-CD40 cells [1] | activation of p38 by Hsp70, nucleotide dependence ([1]; ADP versus AMPPNP, compared with same molar concentration of CD40 ligand) | uptake of fluorescent (FITC) peptide C into HEK293T-CD40 cells [2]
Hsp70: Recombinant human heat shock protein 70, expressed and purified as His-tagged protein | caused an increase in phosphorylated p38 to an extent comparable to that observed with DnaK | significant, and depended on the presence of ADP | fluorescent peptide was observed in punctuate intracellular structures only in cells expressing CD40
N70: Recombinant N-terminal ATPase domain of human Hsp70, residues 5-381 (SEQ ID NO: 1) | caused an increase in phosphorylated p38 to an extent comparable to that observed with DnaK | – | did not result in a peptide signal above background
